The record followed here is US20070231329A1.

The target of test [1] is extracellular region of human V158 FcγRIIIa with C-terminal 6x His-tag and GST-tag (human) (UniProt P08637). The test is described as follows: SPR.
Test [2] addresses extracellular region of human F158 FcγRIIIa with C-terminal 6x His-tag and GST-tag (human) (UniProt P08637). The test is described as follows: SPR, receptor immobilized, antibody flowed. In general terms: SPR reads the build-up and loss of mass on a sensor chip optically.
The target of test [3] is extracellular region of human V158 FcγRIIIa with C-terminal 6x His-tag and GST-tag (human) (UniProt P08637). The test is described as follows: SPR, His-tagged receptor immobilized, antibody flowed.
Test [4] deals with FcγRIIIa on human PBMCs expressing heterozygous V158/F158 FcγRIIIa (human) (UniProt P08637). The test is described as follows: cell-based or functional assay.

For orientation: Kd means the concentration at which binding is half-saturated. Low values mean a tighter complex, high ones a looser complex.

extracellular region of human F158 FcγRIIIa with C-terminal 6x His-tag and GST-tag (human), sequence (P08637 17-208, chain 1 of 2): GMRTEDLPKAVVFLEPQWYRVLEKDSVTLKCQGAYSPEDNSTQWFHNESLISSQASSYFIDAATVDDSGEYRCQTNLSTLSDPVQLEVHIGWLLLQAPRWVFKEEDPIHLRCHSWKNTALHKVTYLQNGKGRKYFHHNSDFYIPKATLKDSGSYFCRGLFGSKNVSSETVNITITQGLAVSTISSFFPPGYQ
extracellular region of human F158 FcγRIIIa with C-terminal 6x His-tag and GST-tag (human), sequence (P08515 whole entry, chain 2 of 2, further chain): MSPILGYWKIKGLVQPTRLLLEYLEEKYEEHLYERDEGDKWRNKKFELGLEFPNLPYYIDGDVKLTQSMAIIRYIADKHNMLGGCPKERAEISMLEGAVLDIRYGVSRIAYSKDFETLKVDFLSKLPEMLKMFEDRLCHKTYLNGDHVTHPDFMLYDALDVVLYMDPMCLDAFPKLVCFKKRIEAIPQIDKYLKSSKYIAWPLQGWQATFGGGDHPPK
extracellular region of human V158 FcγRIIIa with C-terminal 6x His-tag and GST-tag (human), sequence (P08637 17-208 F176V, chain 1 of 2): as the sequence (P08637 17-208, chain 1 of 2) above, with F160V counted along it
extracellular region of human V158 FcγRIIIa with C-terminal 6x His-tag and GST-tag (human), sequence (P08515 whole entry, chain 2 of 2, further chain): as the sequence (P08515 whole entry, chain 2 of 2, further chain) above

The substance E272R alemtuzumab (antibody) yielded a Fold WT V158 FcγRIIIa in test [1] of 1.38 fold.

Regarding E283H alemtuzumab (antibody), the Fold WT V158 FcγRIIIa in test [1] turned out to be 2.31 fold.

I332E alemtuzumab (antibody): the Kd stood at 72 nM in test [2] and 31 nM in test [3].

For S239D/I332E alemtuzumab (antibody), in test [4], the ADCC, DoHH-2 target cells: EC50 turned out to be 3 ng/mL; the ADCC, DoHH-2 target cells: Fold WT is 3.3 fold; the ADCC, DoHH-2 target cells: log (EC50) was 0.49 log (ng/ml).

Take S298A alemtuzumab (antibody): the Kd is 285 nM in test [2] and 52 nM in test [3].

Turning to “S298A/E333A/K334A alemtuzumab (antibody)”, the values for the equilibrium dissociation constant (Kd) in test [2] and in test [3] were 156 nM and 39 nM, respectively.

For the substance S304T alemtuzumab (antibody), in test [1], the Fold WT V158 FcγRIIIa is 12.8 fold.

In the case of V264I alemtuzumab (antibody), the Kd is 550 nM in test [2] and 64 nM in test [3].

As to V264I/I332E alemtuzumab (antibody), in test [4], the ADCC, DoHH-2 target cells: EC50 turned out to be 4 ng/mL and the ADCC, DoHH-2 target cells: log (EC50) is 0.6 log (ng/ml). For the same substance, in test [2], the Kd turned out to be 52 nM. The substance also gave a Kd in test [3] of 17 nM.

As to V284E alemtuzumab (antibody), the Fold WT V158 FcγRIIIa in test [1] was found to be 1.51 fold.
